Assay results as given in PMC4686654.

Key:
EGFP-RhoA [1] = target: EGFP-RhoA (UniProt P61586); assay: fluorescence polarisation; 100 nM EGFP-RhoA.GDP titrated with Dbs; 20 mM Tris pH 7.4, 150 mM KCl, 1 mM TCEP, 1 mM EDTA (nucleotide-free RhoA); 25 °C
EGFP-RhoA [2] = target: EGFP-RhoA (UniProt P61586); assay: fluorescence polarisation; 100 nM EGFP-RhoA.GDP titrated with Dbs; 20 mM Tris pH 7.4, 150 mM KCl, 1 mM TCEP, 2 mM MgCl2 (nucleotide-loaded RhoA); 25 °C

Chain of EGFP-RhoA (P61586 whole entry): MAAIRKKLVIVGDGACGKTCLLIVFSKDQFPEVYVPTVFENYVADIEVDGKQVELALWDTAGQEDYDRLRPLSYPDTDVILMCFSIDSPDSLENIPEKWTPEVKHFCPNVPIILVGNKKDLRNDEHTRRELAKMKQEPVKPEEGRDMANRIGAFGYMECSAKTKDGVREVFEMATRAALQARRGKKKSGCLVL

B1: guanine exchange factor Dbs 622-965 (domain or fragment)
chain: TGEEEESLAILRRHVMNELLDTERAYVEELLCVLEGYAAEMDNPLMAHLISTGLQNKKNILFGNMEEIYHFHNRNIPAGLESCIDCPELVGRCFLERMEEFQIYEKYCQNKPRSESLWRQCSDCPFFQECQKKLDHKLSLDSYLLKPVQRITKYQLLLKEMLKYSKHCEGAEDLQEALSSILGILKAVNDSMHLIAITGYDGNLGDLGKLLMQGSFSVWTDHKKGHTKVKELARFKPMQRHLFLHEKAVLFCKKREENGEGYEKAPSYSYKQSLNMTAVGITENVKGDTKKFEIWYNAREEVYIIQAPTPEIKAAWVNEIRKVLTSQLQACREASQHRALEQSH
EGFP-RhoA [1]
  Kd: 0.354 µM
EGFP-RhoA [2]
  Kd: 21.2 µM
